This data set has as its target T1, Tat (48-57) peptide (HIV-1).
T1 chain: GRKKRRQRRR

This note sets out measurements from patent US20030153523, “Methods for identifying RNA binding compounds” (University of Medicine and Dentistry of New Jersey, published 2003).

The molecule GGCAGAUCUGAGCCUGGGAGCUCUCUGCC (ssRNA) [TAR RNA (wild type)] displayed a Kd of 727 nM.

Broadly, the Kd is the free concentration of one partner at which half of the binding sites on the other are occupied at equilibrium, for simple one-to-one binding.
